These are literature values, as cited in publication PMC4963854, “Mapping Protein–Protein Interactions of the Resistance-Related Bacterial Zeta Toxin–Epsilon Antitoxin Complex (ε2ζ2) with High Affinity Peptide Ligands Using Fluorescence Polarization” (Toxins, 2016).

This series deals with Zeta toxin (Streptococcus pyogenes) (UniProt Q54944).
Sequence of Zeta toxin (Streptococcus pyogenes) (Q54944 2-287): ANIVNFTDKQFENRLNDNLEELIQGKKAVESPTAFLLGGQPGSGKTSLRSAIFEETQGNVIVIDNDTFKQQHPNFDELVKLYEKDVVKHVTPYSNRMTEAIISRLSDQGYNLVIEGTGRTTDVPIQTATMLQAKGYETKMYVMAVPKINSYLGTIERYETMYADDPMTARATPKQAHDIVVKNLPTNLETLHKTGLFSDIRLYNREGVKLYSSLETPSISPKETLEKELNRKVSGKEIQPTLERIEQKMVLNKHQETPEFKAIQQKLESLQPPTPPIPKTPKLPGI

Sequence of Epsilon antitoxin (Q57231 2-90): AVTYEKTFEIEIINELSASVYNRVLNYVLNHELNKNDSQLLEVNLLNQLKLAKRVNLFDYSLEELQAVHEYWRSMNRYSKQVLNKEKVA

For Epsilon antitoxin (from UniProt Q57231), the Kd (as a rule, the concentration at which binding is half-saturated) is 1000 nM.
